Each block holds one binder with its values, some of them ahead of it.
Tests used:
[1] = target: T1, Cynomolgus monkey (Macaca fascicularis) CD7 protein (soluble) (cynomolgus monkey (Macaca fascicularis)); test: SPR, mAb captured, single concentration of cynomolgus CD7 protein as analyte
T1 construct: also called Cynomolgus CD7; cynomolgus antigen
T1 chain: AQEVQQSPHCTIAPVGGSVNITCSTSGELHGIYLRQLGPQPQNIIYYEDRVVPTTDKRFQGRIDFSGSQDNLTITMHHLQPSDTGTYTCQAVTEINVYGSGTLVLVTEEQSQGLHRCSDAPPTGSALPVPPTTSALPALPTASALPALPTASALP

[2] = target: T2, Human CD7 on cells (CEM and other T-ALL cells, peripheral NK and T cells) (human, UniProt P09564 26-238); test: cell-based or functional assay
T2 sequence: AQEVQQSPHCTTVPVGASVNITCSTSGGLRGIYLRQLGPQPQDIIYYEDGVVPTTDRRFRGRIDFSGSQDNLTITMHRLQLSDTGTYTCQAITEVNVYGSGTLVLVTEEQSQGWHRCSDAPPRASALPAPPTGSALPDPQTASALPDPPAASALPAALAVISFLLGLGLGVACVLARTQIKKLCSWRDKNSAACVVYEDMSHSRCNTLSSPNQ

[3] = target: T1, Cynomolgus monkey (Macaca fascicularis) …; test: Affinity to soluble CD7 (biophysical summary; SPR)
[4] = target: T3, Human CD7 protein (soluble) (human, UniProt P09564 26-180); test: Affinity to soluble CD7 (biophysical summary; SPR)
T3 construct: also called hCD7; human antigen
T3 sequence: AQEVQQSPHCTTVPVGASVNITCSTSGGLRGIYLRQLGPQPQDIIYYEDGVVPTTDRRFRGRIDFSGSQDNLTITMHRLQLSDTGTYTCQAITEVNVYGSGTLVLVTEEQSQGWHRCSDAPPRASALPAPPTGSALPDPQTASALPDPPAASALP

[5] = target: T2, Human CD7 on cells (CEM and other T-ALL …); test: cell-based or functional assay; remark: listed apart in the source
[6] = target: T1, Cynomolgus monkey (Macaca fascicularis) …; test: SPR, captured mAb, global fit 1:1 model
[7] = target: T3, Human CD7 protein (soluble); test: SPR, captured mAb, global fit 1:1 model

binding result [1]: no binding | EC50, CDC assay on CEM cells [2]: 0.12 nM
B1: 1741E04 E345R (antibody, human IgG1, V domains shown)
VH: EVQLVESGGGLVKPGGSPRLSCAAYGVTFSNAWMSWVRQAPGKGLEWVGRIKSKTDGGTTDYAAPVKGRFTISRDDSKNTLYLQMNSLKTEDTAVYYCTIEAVAGHFDYWGQGTLVTVSS
VL: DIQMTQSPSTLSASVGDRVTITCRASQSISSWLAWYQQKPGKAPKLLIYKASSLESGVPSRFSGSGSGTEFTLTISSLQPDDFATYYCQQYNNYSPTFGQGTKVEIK
Maximum killing, CDC assay on CEM cells [2]: 99.8%

EC50, CDC assay on CEM cells [2]: 0.12 nM
B2: 1741G09 E345R (antibody, V domains shown)
VH: EVQLVESGGGLVKPGGSLRLSCAASGFSFSVAWMSWVRQAPGKGLEWVGRIKRKTDGGTTDYAAPVKGRFIISRDDSIKALYLQMNSLKTEDTAVYYCTTDPLLRYSDWLSHSLMGDVWGQGTTVTVSS
VL: DIQMTQSPSSLSASVGDRVAITCRTSQNINNYLNWYQQKPGKAPKPLIYAASSLQSGVPSRFSGSGSGTDFTLTISTLHPEDFATYYCQQTYSIPLTFGGGTKVEIK
Maximum killing, CDC assay on CEM cells [2]: 99.5%

Kd [3]: 0.15 nM | Kd [4]: 4.75 nM | CDC EC50; PDATLLAd2R, PDATALL12, PDTALL11 (intermediate to low CD7 expression) [5]: < 0.4 nM | CDC EC50; PDTALL13, PDTALL18 (much low CD7 expression) [5]: < 0.6 nM | CDC EC50; PDTALL46 and PDTALLAd2R [5]: ~0.35 nM | CDC assay on isolated peripheral NK cells, EC50 [5]: ~0.3 nM
B3: 1741G09 HuIgG1 E430G C-term Lysine clipped, Phe variant of light chain (antibody, V domains shown)
VH: B2 VH
VL: DIQMTQSPSSLSASVGDRVAITCRTSQNINNYLNWYQQKPGKAPKPLIYAASSLQSGVPSRFSGSGSGTDFTLTISTLHPEDFATYYCQQTYSIPLTFGGGTKVEIKR
notes: also called 1741G09 E430G; G09 E430G

Kd [6]: 0.145 nM | kon [6]: 424000 M⁻¹ s⁻¹ | Kd [7]: 4.74 nM | koff [7]: 0.00192 s⁻¹ | kon [7]: 416000 M⁻¹ s⁻¹
B4: 1741G09 (antibody, V domains shown)
VH: B2 VH
VL: B2 VL
notes: also called 1741G9

EC50, CDC assay on CEM cells [2]: 1.16 nM
B5: 1734F05 E345R (antibody, V domains shown)
VH: EVQLVESGGGLVQPGGSLRLSCAASGFTFSRYAMSWVRQAPGKGLEWVSSISASGATTFYADPVKGRFTISRDNSKKTLYLQMNSLRAEDTAVYYCAKDQDFDILTGYLNWFDPWGQGTLVTVSS
VL: EIVLTQSPATLSLSPGERVILSCRVSQSVSSYLAWYQQKPGQAPRLLIYDTSNRATGIPARFSGSGSGTDFTLTISSLEPEDFAVYYCQQRRNWPLTFGGGTKVEIK
Maximum killing, CDC assay on CEM cells [2]: 100%

Kd [6]: 3.9 nM | koff [6]: 0.000642 s⁻¹ | kon [6]: 165000 M⁻¹ s⁻¹ | Kd [7]: 0.98 nM | koff [7]: 0.000356 s⁻¹ | kon [7]: 369000 M⁻¹ s⁻¹
B6: 1734F05 (antibody, V domains shown)
VH: B5 VH
VL: B5 VL

EC50, CDC assay on CEM cells [2]: 0.00037 nM
B7: 1730C02 E345R (antibody, human IgG1, V domains shown)
VH: EVQLVESGGGLVQLGGSLRLSCAASGLTFNNYAMSWVRQAPGKGLEWVSTISGSGGSTYYADSAKGRFTISRDNSKNTLYLQMNSLRAEDTAVYYCAKGGLLYFGEFHFDYWGQGTLVTVSS
VL: DIQMTQSPSSLSASVGDRVTIICRASQGISNYLAWFQQKPGKAPKSLIYAASSLQSGVPSKFSGSGSGTDFTLTISSLQPEDFATYYCQHYNSYPLTFGGGTKVEIK
Maximum killing, CDC assay on CEM cells [2]: 93.2%

From patent publication US20260098089A1 (KYMAB, published 2026)
